“And” between values parts separate entries of the source, which are not always exact repeats. Equal entries are not always repeated.
Target: LDLR/TF chimeric protein with amino acids 1-374 of mature human LDLR fused to amino acids 20-698 of human transferrin (encoded by pEFBOS/LDLrTF1.S) (human)
Assay: microplate assay: chimeric protein (13.3 nM) held by coated HTF-14, LDL 0.5-50 µg/ml, detected with sheep anti-human LDL; the signal at 50 µg/ml is taken as the maximum

LDLR/TF chimeric protein with amino acids 1-374 of mature human LDLR fused to amino acids 20-698 of human transferrin (encoded by pEFBOS/LDLrTF1.S) (human), sequence (chain, as listed by the source mutant): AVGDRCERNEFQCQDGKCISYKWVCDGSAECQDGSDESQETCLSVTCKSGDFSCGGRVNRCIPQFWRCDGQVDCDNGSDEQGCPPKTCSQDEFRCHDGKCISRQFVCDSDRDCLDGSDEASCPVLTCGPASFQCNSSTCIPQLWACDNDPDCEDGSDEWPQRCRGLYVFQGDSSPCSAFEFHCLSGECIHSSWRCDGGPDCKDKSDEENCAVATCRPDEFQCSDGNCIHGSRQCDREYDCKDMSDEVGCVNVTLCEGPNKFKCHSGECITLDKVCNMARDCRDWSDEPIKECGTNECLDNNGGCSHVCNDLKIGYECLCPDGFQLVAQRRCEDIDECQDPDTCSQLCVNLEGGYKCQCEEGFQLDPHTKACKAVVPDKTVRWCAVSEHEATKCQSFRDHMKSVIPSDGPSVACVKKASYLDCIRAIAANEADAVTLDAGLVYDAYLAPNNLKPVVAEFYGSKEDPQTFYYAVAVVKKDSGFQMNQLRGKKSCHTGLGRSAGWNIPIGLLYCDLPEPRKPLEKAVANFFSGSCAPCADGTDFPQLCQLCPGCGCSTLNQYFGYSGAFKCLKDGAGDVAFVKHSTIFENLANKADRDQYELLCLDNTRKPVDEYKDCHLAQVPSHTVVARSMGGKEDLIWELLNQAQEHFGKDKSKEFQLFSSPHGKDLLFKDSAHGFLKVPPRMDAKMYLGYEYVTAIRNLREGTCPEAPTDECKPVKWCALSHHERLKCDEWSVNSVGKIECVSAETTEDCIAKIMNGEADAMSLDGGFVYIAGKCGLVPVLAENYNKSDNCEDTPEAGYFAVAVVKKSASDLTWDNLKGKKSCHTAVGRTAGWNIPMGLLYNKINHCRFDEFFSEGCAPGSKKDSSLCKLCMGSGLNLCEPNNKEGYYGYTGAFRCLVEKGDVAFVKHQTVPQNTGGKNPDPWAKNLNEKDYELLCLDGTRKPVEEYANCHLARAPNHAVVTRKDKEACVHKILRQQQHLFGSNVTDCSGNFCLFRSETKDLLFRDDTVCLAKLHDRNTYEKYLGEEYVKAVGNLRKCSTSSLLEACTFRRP

In the case of “human LDL (low density lipoprotein particle carrying one molecule of apolipoprotein B-100), P04114 28-4563”, the EC50 is reported as 1.6 µg/mL and 3.1 nM.
